# Test results published in patent US20030148447A1 (ZymoGenetics, published 2003).
# B1: zalpha11CFLG soluble receptor (zalpha11 extracellular domain with C-terminal FLAG tag) (receptor)
# chain: not shown
# modifications: first Trp of the WSXWS motif C-mannosylated in ~35% of molecules (BHK)
# B2: zalpha11CEE soluble receptor (zalpha11 extracellular domain with C-terminal Glu-Glu tag) (receptor)
# chain: not shown
# modifications: first Trp of the WSXWS motif C-mannosylated in ~46% of molecules (BHK)
# Columns and labels:
# [1] = target: factor present in the activated CD3+ selected human T-cell conditioned media; test: cell-based or functional assay
# [2] = target: factor present in the activated monkey spleen conditioned media; test: cell-based or functional assay
binder,measurement,setting,value
B1,inhibition of conditioned-medium-driven BaF3/Zalpha11 cell growth; soluble receptor concentration giving complete inhibition,[1],10 µg/mL
same,titration of soluble receptor; lowest concentration completely inhibiting BaF3/Zalpha11 growth,[1],20 ng/mL
same,inhibition of conditioned-medium-driven BaF3/Zalpha11 cell growth; soluble receptor concentration giving complete inhibition,[2],10 µg/mL
same,titration of soluble receptor; lowest concentration completely inhibiting BaF3/Zalpha11 growth,[2],20 ng/mL
B2,inhibition of conditioned-medium-driven BaF3/Zalpha11 cell growth; soluble receptor concentration giving complete inhibition,[1],10 µg/mL
same,titration of soluble receptor; lowest concentration completely inhibiting BaF3/Zalpha11 growth,[1],20 ng/mL
same,inhibition of conditioned-medium-driven BaF3/Zalpha11 cell growth; soluble receptor concentration giving complete inhibition,[2],10 µg/mL
same,titration of soluble receptor; lowest concentration completely inhibiting BaF3/Zalpha11 growth,[2],20 ng/mL
